Data as given in article PMC4002761.

Target: Taxol-stabilized Cy5-microtubules
Assay: single-molecule TIRF microscopy

Substance | fold increase in the frequency of active landing events against FL WT Kif21a [fold]
mouse GFP-fused FL MT1 (M356T) Kif21a (natural protein) | 10
mouse GFP-fused FL MT3 (R943W) Kif21a (natural protein) | 10
